Data on 73 sequences can be found in the supplement of paper PMC10567573.

± gives the standard deviation.

This data set can be described thus: protein stability index of a GFP-peptide fusion (GPS, HEK-293T) (PSI 1-6); higher = more stable.
The mark [1] stands for this setting: treatment: DMSO, c terminus: a fixed tail appended.
[2] abbreviates: treatment: MLN4924 1 uM, 8 h, c terminus: a fixed tail appended.
Setting [3] is: treatment: DMSO, c terminus: native.
Setting [4] is: treatment: MLN4924 1 uM, 8 h, c terminus: native.
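Note: 24-mer peptide tiles fused after GFP, lentivirally expressed, FACS-sorted into six equal bins by GFP/DsRed ratio, decoded by Illumina sequencing, PSI is the read-weighted mean bin number.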

EHLEILQKEDVKPYQVNGVNPAYP [ETS1]: the protein stability index reads like this: under setting [1], 4.1 ± 0.11; under setting [2], 4.05 ± 0.28.

Consider EHPEALSCLLLQLRREKPSEEMVK [INTS3], for which the protein stability index under setting [1] was found to be 3.38 ± 0.43 and the protein stability index under setting [2] stood at 3.57 ± 0.26.

For the sequence EIARREKELEARVRKPAEAERYKL [FLOT1], the protein stability index is, setting by setting: under setting [1], 4.4 ± 0.1; under setting [2], 4.45 ± 0.22.

As for EIIELRRTVNALEIELQAQHNLRY [KRT33B], the protein stability index is, setting by setting: under setting [1], 2.21 ± 0.22; under setting [2], 2.08 ± 0.14.

For EISAYRKLLQGEEERLKLSPSPSS [LMNB1], the protein stability index reads like this: under setting [1], 3.78 ± 0.37; under setting [2], 4.16 ± 0.61.

Regarding EKLCIYTDNSIKPQELLEWELVVL [CCND2], the protein stability index is 2.57 ± 0.58 under setting [1] and 2.62 ± 0.6 under setting [2].

Consider EKPYGCIDCGKAFSQKSCLVAHQR [ZNF649], for which the protein stability index came out at 2.81 ± 0.07 under setting [1] and 2.99 ± 0.28 under setting [2].

In turn, EKWAEGGGHSRERADEPQWSLYPS [CHGB] registered a protein stability index under setting [1] of 4.28 ± 0.22 and a protein stability index under setting [2] of 4.24 ± 0.064.

Consider EKYGRAHPVFYQGTYSQALNDAKR [FAF2], for which the protein stability index is, setting by setting: under setting [1], 3.28 ± 0.15; under setting [2], 3.47 ± 0.37.

Turning to ELDDPGQPVSLRRRKREVLVEDMV [ZNF24], the protein stability index turned out to be 4.66 ± 0.12 under setting [1] and 4.68 ± 0.17 under setting [2].

Regarding ELEPLKGNFDWEAIFDAGTLGGEL [FOXJ1], the protein stability index is, setting by setting: under setting [1], 4.2 ± 0.39; under setting [2], 4.05 ± 0.46.

ELGSESQGASESQAPGEENLLGEA [HDAC6]: the protein stability index was found to be 5.63 ± 0.29 under setting [1] and 5.54 ± 0.12 under setting [2].

On to ELHQVAERVEALGQFVMKTRRTLK [GNB5], for which the protein stability index amounted to 2.87 ± 0.12 under setting [1] and 3.1 ± 0.3 under setting [2].

Turning to ELIRVEVEILDLNDNSPSFATPER [PCDHGC5], the protein stability index under setting [1] was 2.42 ± 0.26 and the protein stability index under setting [2] came out at 2.43 ± 0.25.

For the sequence ELTLSKTDLEMQIESLNEELAYMK [KRT13], the protein stability index came to 3.66 ± 0.15 under setting [1] and 3.66 ± 0.35 under setting [2].

ELVPKQPQKRKPQEQLLECNKLCG [SLC2A12]: the protein stability index turned out to be 3.44 ± 0.45 under setting [1] and 4.18 ± 0.18 under setting [2].

Regarding ELYVFGGVRSREDAQGSEMVTCKS [GAN], the protein stability index reads like this: under setting [1], 4.08 ± 0.38; under setting [2], 4.15 ± 0.34.

Take ENLAHHLEIDSGVITLDPQTASRS [TRIM15]: the protein stability index under setting [1] was 4.96 ± 0.11 and the protein stability index under setting [2] stood at 4.97 ± 0.27.

ENPETDLHVNPKKQTIGNSCKACG [EIF5]: the protein stability index was 4.44 ± 0.39 under setting [1] and 4.66 ± 1.2 under setting [2].

As to ENRALQQLLEQKQAYWAQAEDTAA [CBY2], the protein stability index by setting is: under setting [1], 4.3 ± 0.21; under setting [2], 4.4 ± 0.21.

With ENSHTNTEVLRNMGFAAKAMKSVH [CHMP4C], the protein stability index turned out to be 3.61 ± 0.28 under setting [1] and 3.77 ± 0.23 under setting [2].

As to ENTLLNSQMVSTDNSLSSQNYISQ [MIA2], the protein stability index by setting is: under setting [1], 4.05 ± 0.23; under setting [2], 4.03 ± 0.17.

Regarding EPAGGGRSREARSRLLLLEQELKT [SMAD6], the protein stability index was 4.63 ± 0.44 under setting [1] and 4.87 ± 0.088 under setting [2].

Regarding EPEPAEVTSTSQSPHSPDSSQSSL [DDIT3], the protein stability index was 5.48 ± 0.15 under setting [1] and 5.58 ± 0.13 under setting [2].

As for EPGPRPALQPSPSIRLPLDAPLPG [TBC1D10A], the protein stability index by setting is: under setting [1], 4.97 ± 0.28; under setting [2], 5.06 ± 0.26.

Sequence EPKLHTPMYFFLGNLSVLDVGCIS [OR3A1] showed a protein stability index under setting [1] of 2.7 ± 0.83 and a protein stability index under setting [2] of 2.95 ± 0.71.

EPNTFSPANVDASVMYRKWKESKG [CDC34] gave a protein stability index under setting [1] of 4.69 ± 0.15 and a protein stability index under setting [2] of 4.59 ± 0.17.

On to EQATSLAILRVIRLVRVFRIFKLS [KCNA1], for which the protein stability index stood at 2.42 ± 0.63 under setting [1] and 2.7 ± 0.26 under setting [2].

EQHGKKVPTVSRPYSFIEFDTFIQ [SEC22B]: the protein stability index by setting is: under setting [1], 2.75 ± 0.28; under setting [2], 2.95 ± 0.26.

As to EQLLVLVEWAKYIPAFCELPLDDQ [HNF4A], the protein stability index was determined as 2.57 ± 0.78 under setting [1] and 2.46 ± 0.42 under setting [2].

As for ERAIRTQPKQLIVDDLKGSLKEDL [SPRY1], the protein stability index by setting is: under setting [1], 4.81 ± 0.28; under setting [2], 4.85 ± 0.18.

For ERLVAQFPSSGRFWKLYIEAEVTI [CSTF3], the protein stability index amounted to 2.93 ± 0.61 under setting [1] and 2.71 ± 0.38 under setting [2].

On to ERMAEEGGGGQGDGGSSLASGSTQ [FBXO28], for which the protein stability index is, setting by setting: under setting [1], 5.53 ± 0.35; under setting [2], 5.35 ± 0.33.

Take ESAFKLSTGTSRWPSAKSAGWTLA [SCNN1D]: the protein stability index by setting is: under setting [1], 2.46 ± 0.21; under setting [2], 3.03 ± 0.17.

In the case of ESFIKAIGVGLGFELQRLEFDLSP [AASDHPPT], the protein stability index turned out to be 2.89 ± 0.77 under setting [1] and 2.84 ± 0.64 under setting [2].

Take ESHSCPQQVPMPPGQEAQRVVCGI [NEK8]: the protein stability index is, setting by setting: under setting [1], 4.15 ± 0.28; under setting [2], 4.15 ± 0.12.

As to ETAAGKGKGEARARLKRSQSFGVA [SMTNL2], the protein stability index reads like this: under setting [1], 4.39 ± 0.18; under setting [2], 4.71 ± 0.12.

Turning to ETHRAPDLVQWTRHMEAVKAQLLE [SOAT2], the protein stability index is, setting by setting: under setting [1], 4.81 ± 0.21; under setting [2], 4.53 ± 0.29.

As for ETLSITNCRLSEGDVMHLSQSPSV [PRAME], the protein stability index by setting is: under setting [1], 3.2 ± 0.66; under setting [2], 3.22 ± 0.77.

Consider ETYLQNHFAEEERSKYDYLMILRR [TENT5C], for which the protein stability index by setting is: under setting [1], 2.84 ± 0.1; under setting [2], 3.13 ± 0.23.

EVHRLIEGKAPIISGVTKAISSPT [TPPP]: the protein stability index reads like this: under setting [1], 3.42 ± 0.18; under setting [2], 3.84 ± 0.28.

Regarding EVPTAAGALTPTPAPTTTTATREE [CLPTM1], the protein stability index runs as follows: under setting [1], 5.42 ± 0.27; under setting [2], 5.44 ± 0.39.

Sequence EVRKLTQRLEEMTQRMEALENRLR [MATN2] yielded a protein stability index under setting [1] of 2.57 ± 0.39 and a protein stability index under setting [2] of 2.91 ± 0.4.

For EVSSPPDTTEEVDHKPKLCRLAKG [PDZK1], the protein stability index under setting [1] stood at 5.11 ± 0.45.

EYVEKETQEKKRLSRTNEELLWKL [MTUS2] registered a protein stability index under setting [1] of 4.04 ± 0.25 and a protein stability index under setting [2] of 4.17 ± 0.22.

Regarding FAPQTGARPSETFARFCKSQESAL [DNAAF3], the protein stability index is, setting by setting: under setting [1], 2.5 ± 0.45; under setting [2], 2.76 ± 0.52.

In the case of FARYPNGVVVHYFCSKEVNPADT [VPS39], the protein stability index is 2.4 ± 0.22 under setting [3] and 2.27 ± 0.18 under setting [4].

As to FCYCAGSHKRKRSSGSFCYCHPDS [GMCL1], the protein stability index is, setting by setting: under setting [1], 2.56 ± 0.73; under setting [2], 3.19 ± 0.61.

Consider FDQLKQFLTFDKQVLRFYAIWDDT [EFHC1], for which the protein stability index is, setting by setting: under setting [1], 2.31 ± 0.2; under setting [2], 2.13 ± 0.33.

As to FEAYAKICDPGLTSFEPEALGNLV [CAMK2B], the protein stability index came to 2.71 ± 0.37 under setting [1] and 2.76 ± 0.32 under setting [2].

Take FEFLYNALEFWRQEELTRINQSFT [IQUB]: the protein stability index was determined as 2.13 ± 0.54 under setting [1] and 2.45 ± 0.74 under setting [2].

As for FFKGIDQDIERGVQSEIFLHESYC [LYSMD4], the protein stability index under setting [1] was 2.58 ± 0.27 and the protein stability index under setting [2] came out at 2.35 ± 0.19.

For the sequence FFLFIGVILFSSAVYFAEAEEAES [KCNA1], the protein stability index came out at 2.81 ± 0.18 under setting [1] and 2.78 ± 0.34 under setting [2].

As for FFVITMIKIVLINSFGAILQGSLF [SLC29A1], the protein stability index turned out to be 3.36 ± 0.093 under setting [1] and 2.99 ± 0.12 under setting [2].

Sequence FHNLVSLNLNYNCISDELLENLCE [FBXO39] displayed a protein stability index under setting [1] of 2.6 ± 0.18 and a protein stability index under setting [2] of 2.66 ± 0.3.

As for FKLFFNGRPGIVAWTLINLSFAAK [DHCR7], the protein stability index was 3.03 ± 0.28 under setting [1] and 2.46 ± 0.31 under setting [2].

For the sequence FLDILRRADKNDDGKLSFEEFKAY [NECAB1], the protein stability index turned out to be 2.83 ± 0.23 under setting [1] and 2.93 ± 0.34 under setting [2].

FLENLDKSRKGELLKKSDLQKDF [PRIM1]: the protein stability index runs as follows: under setting [3], 4.7 ± 0.24; under setting [4], 5.154 ± 0.05.

For FLMRKCGWFVRELRVEFAAENYLS [FBXO33], the protein stability index by setting is: under setting [1], 3.06 ± 0.59; under setting [2], 2.8 ± 0.35.

Turning to FLQQSLERVYSLQHLDPQGAQELL [INTS4], the protein stability index is, setting by setting: under setting [1], 1.91 ± 0.42; under setting [2], 2.76 ± 0.54.

As for FPREHQFFEDGDVQRHLYLQDVIM [ZNF511], the protein stability index is, setting by setting: under setting [1], 2.45 ± 0.085; under setting [2], 2.78 ± 0.28.

Regarding FQKGQVTRDGFKLVMASLYHIYVA [HMOX1], the protein stability index by setting is: under setting [1], 2.83 ± 0.49; under setting [2], 3.12 ± 0.97.

As to FQTLQAIVSHFQKLFDVPSLNGVY [CEP70], the protein stability index turned out to be 2.36 ± 0.36 under setting [1] and 2.36 ± 0.4 under setting [2].

Consider FRDPIWSTWALYGRAVDQDKVLRF [MYORG], for which the protein stability index is, setting by setting: under setting [1], 2.12 ± 0.39; under setting [2], 2.11 ± 0.15.

Consider FSDSSLIEDSQALHKRPKLDSEYY [LURAP1L], for which the protein stability index stood at 3.86 ± 0.35 under setting [1] and 3.9 ± 0.21 under setting [2].

For FSPAKPKPSKELKPLLGSAVLGLL [MYORG], the protein stability index is, setting by setting: under setting [1], 2.15 ± 0.53; under setting [2], 2.21 ± 0.17.

FSPDGPSRFRKAYKPEQPLVRLRG [LOXL2]: the protein stability index is, setting by setting: under setting [1], 2.5 ± 0.58; under setting [2], 3.39 ± 0.68.

With FTDFNATSALFWEQHDLVYGDWTS [CLPTM1], the protein stability index reads like this: under setting [1], 2.29 ± 0.67; under setting [2], 2.53 ± 0.27.

Turning to FTRKTLAEKKQELDKLRNEWASHT [SASS6], the protein stability index is, setting by setting: under setting [1], 3.15 ± 0.47; under setting [2], 3.77 ± 0.6.

The sequence FVERVRKRGFEVVYMTEPIDEYCV [HSP90AB1] had a protein stability index under setting [2] of 2.53 ± 0.26.

FVLLCFAIGALLVCYHYYADWFMS [TMEM40]: the protein stability index was found to be 2.16 ± 0.31 under setting [1] and 2.19 ± 0.39 under setting [2].

Take FVSKIRAVINDIANLPVPTIAAID [AUH]: the protein stability index runs as follows: under setting [1], 2.42 ± 1.6; under setting [2], 2.04 ± 0.54.

Consider GAAGRSQEPEVPCAAVLPGKPGDR [RSPH3], for which the protein stability index reads like this: under setting [1], 5.31 ± 0.29; under setting [2], 5.31 ± 0.2.
